The results in this text go back to paper PMC3014985.

The target of test [1] is 6His-RVFV NP (Rift Valley fever virus nucleoprotein with N-terminal hexahistidine tag) (Rift Valley fever virus (strain Smithburn)) (UniProt P21700). Briefly: SEC.
Test [2] has the same target. Briefly: SEC. This is another data set of the same source. For orientation: SEC sorts molecules by how far they enter the pores of the column.

Several values for one entry are separate records, joined by “and”; a condition that tells them apart may be missing. Equal values may be shown once. Read-outs that look alike come from different tables or passages of the source.

As a reminder, the stoichiometry N is a count of units in the complex or per binding partner. With “6His-RVFV NP (Rift Valley fever virus nucleoprotein with N-terminal hexahistidine tag) (from UniProt P21700 1-245) (natural protein)”, the stoichiometry N in test [1] is 3 and 2; in test [2], 4.3.
